Data: the domain aggregation screens of Martell et al. (2025)

Assay: soluble fraction after stress (log2 fold change); higher = more stays soluble; pooled small domains, quantitative proteomics
Conditions: stress: pH 4
Procedure, shortened: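 Aggregation propensity is read out as the fold change in how much of each domain remains soluble after acid stress. The custom small-domain libraries were pooled, held at pH 4 and analysed with high-throughput quantitative proteomics. On the log2 scale used, higher values mean more of the domain stayed soluble.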

Sequence | soluble fraction (log2)
HMQVQHVWNRLKRPNGDVLYEINRDHPLVSASLDAAADRGAIETLLRQIEQSLPVNQLYVDMNADEHFE | -0.812
HMQVSDAAQLAEVVKTVLAENPAAVGDYRKGKKAAIGFLLGQVMRHMRGTANPAVARQLLEQALEDE | 0.231
HMQVSDLSAIDSLIDKVLSEQQAAVQDFRSGQGKAMGFLIGKVMQASDGKANPKVIRELMGKKLA | -0.0313
HMQVSIGERVKLARMSAGLNQRQLGKEMGMSAMAISKYETGEVVPNSRVLIQLSQTLHVPLDFFFRS | 0.0627
HMQVTDADFDQIRLAVLSQLKQNSLTVAELLKIIPFKEQKVMPVIRFLIDNRVLEHGTDMKLTVGNSVK | -0.34
HMQVTIGADLAEHAARLDVQISDVVKLIKSGVSEGEIKVGLTKLETRLAHPELALVENKLAYLKALIAES | -0.79
HMQYALEDDLDSAIKLLTGKGLSGTVAWGWSDTYINVGKKSYSMEFIAKMLLRLGEGSRVTIQVDPA | -1.28
HMQYIINFEYSGMLLREYLRGVLGLSHGTLTALKKDPLGILLNGEHATVRAVLHAGDRLTLALE | -1.13
HMQYKVMDVTVDGNPVIEFQNLNSKIKWIENNPDAIIQNIKTSSFEADQKRIVGTSRGPFWIVIKPDF | -0.299
HMQYRQRRGLERMELILDAATRVVAEVGYERTTTNAIATRAGISPGSLYQYFSSKEDIASALWERYAE | -0.251
HMRAGEAVTGQVIGVKEDEIILSIAGSKSEGIITRSEFTNEPNVDLTTKVSVGDELEVKVLKVNDGEGMAS | -0.244
HMRAKPLILLDGREISAEELFSLDKNSIKSIEVLKDETALAQYGEKAKNGVVLVVTKSAAAS | 0.0982
HMRALPAGQADLLKWIDGVTPRSVEELELLSGLEPGRLSELLMELELAGIVRAVAGDSYIKISKS | -0.534
HMRAPETEITYTEFKTALRAGQIETATVGIEQISGKLTDGDLYRTVRVDDPDLLKDLEANHVNAAGRV | -0.0386
HMRASQGRNELILSLLRGHELSILELLEGLEKQGVRVARPTLTKDLNELVSRGSVEATAPPRSKNRTYRIP | 0.302
HMRDFLMDSTKNKLSKDQVQLSRIFLWFGNDFGSKAERLEFISRYSGMDFNQPKIDYLTYDWSLNQ | -0.207
HMRDLITYVVQINGKLRGKLEVAPDTDPEELKALALEVENVKRSLEGWVVKKVIVVPGKMVSIAAG | -0.105
HMRDLLPHFQRELQFLQTHRNEFAAAYPELGGRLATASDLLDDPHVERMVQSFALLAARVHKRLDDDF | -0.143
HMRDLTARQQQILALIRQHIADTGFPPTRAEIAAQLGFRSPNAAEEHLKALARKGVIELASGASRGIRLK | 0.283
HMRDPFDALSARERAVASLVQRGLRNKEVASELGLTEGTVKVHLHKVFDKLGIRGRTELILLAQER | -0.397
HMRDQAIDIYKTVHSVAEPYKEVFLLRVLGELSFKEISHIFGKSESWAKVTFFRAKIKVVEKREES | -1.04
HMRDQQHNIYLLEKAKRLYEEFLGDNRHIIAAEMARFEAVLETQDAIIIQRAQQQFSEFLNRFDG | -1.2
HMRDRYEYLKELRLYLSPLGRTEEDRVIEYYAELIGDKIESGIPENGVLSQLGTPRELADKILAETQEY | -0.384
HMRDSLVGLEGVVVREVDDETLAGKVQIGSMEWSARSESGRIPAGRRVVVLRAEGVHIVVKEV | -0.121
HMRDSWNEATKEKRYTEAYDALNSALKKTPATPHALSDALWIARELGRTNEEVQRLEWRLYALLTWIS | -0.0517
HMRDTDAEVTYKLNEPFKTMGSVSVEGKVLEFAGSKWFARAAEFASNTEVYPLAKNRVRLTFTFHGLTAP | 0.0243

Sequence | soluble fraction (log2)
HMREEFIGVLDGKVAIFHGRPERKGPLKEVTAIEVDKLPRQEQADLEKGLVIRTDKEKLQLMEGLAALLD | -0.171
HMREELIALYRAIARLSEDEQELLNLFYFARRPLSEIAQLTGMTPGAAKTRLYRARRHLRREMEEDGYG | -0.653
HMREGLRHLRVRMPGGAGETLAMLYREGEVLSQSSDGAFIEVEIRVAQSVAGRLLQMPGVQLTEEVG | -0.871
HMREGNELLGKEGVTVSELRPAGIALIDGRRTDVVTDGEFVAVDQAVEVVEVSGNRVVVRRS | 0.0769
HMREIDIWVAEDADSQRIDKYLSMVVEDLSRSRIASLIEGGSILVNGEVIRAKYKVKPADHITAAFEDEM | -0.938
HMREIKSNEILLEVENLKNSEFFNDINFNIKKGEIVGFSGLIGAGRTELALTLFGYYKAESGKVIQ | -0.291
HMREIRIIAEEGHGRLDAFLAGREELGLSRSRIKGLIEEGQVTLNGAVPKAKQPVSPGDEIVVSVPD | -0.0246
HMREKMKGKILDYNFQESRGIISADDGNRYSFENSQWKGTQSPKVNQIVDFEIDGQNAKDIYLDK | 0.0691
HMRESLSEAERHPRYLEGEDVVRMFLLMGDLSRVEAEVIALQWNAQEADRVGLPQDAKVFRTRAR | -0.417
HMREVDKRYYKINIAGTDRIFTNVYRVGDRYSAYEADKNGKPGKFLYSLSQAEIDRAVISGSFDFK | 0.121
HMREVSPEDLALMRRIDAWHLEHPFAGARLLRDLLRPEGFQAGRRHIGTLMARMGIEALYRK | -0.255
HMREYVGLSPFNKEKTPSFYVNDEKGQFFDFSSGKNGDLITFLQETERLTFMEAVERLAAEAGLPMPA | -0.617
HMRFANGHLIWDTIIELRNAERRINRRALADLTGLKPGVVDDHVERWIEKDQLRRAGNGELEVV | -0.24
HMRFMRVSQSKSKNSTSLYIIESVYTKDNKHTTRIVKKLGTVEELSKEHEDPLAWAKEVAKQMTEEAEQN | -0.508
HMRFNIGNVIEHYKLNTEDLAKVLFPTVKYPKQAFDRVLKGEANLDVIQLERLANHIGVLVTDLF | -0.659
HMRFQGKISDWNDEKGYGFVEPNGGGTRAFVHIKSFTDLPRRPINGDIIIYETTTDEKNRVQANNISFTR | -0.163
HMRFSYLNIETRKDISSLINKSEITHSSYNNNEYLYKIKSKKTDDFKDLISLIDEKDLISYSIDS | 0.258
HMRFTVSDKMDMLLKSLSAGQSMPFKSLFASASTKSEVIVTFLALLELMKLNQFVVWQDQILGEIEIERR | -0.162
HMRGDQLREHLLWTAKDVFLELGFERASMDAVAARAETSKRSLYAHFESKEKLFLAVIDLVRG | -1.65
HMRGESFSTLVSILQEMSARKAAQVLNGLSEGLAVEVLRALPSDVAGDILGRMDAAKAAALMEQLST | -0.9
HMRGGLATLTPRERQVLALMAEGRSNAGIAAELVVSGGAVEKHVASIFTKLGLPPDESDNRRVLAVLRHLG | -0.186
HMRGHASVEIKRIVYKYKLTDQELAKITGMKASDFPIYHDHLQLILPKRYWARVLDALQNYEKEHES | ≥ 0.43
HMRGINDLSLVDPQGRIRKDGEQYVVAFGRHKGKEISQIISQDPSYLNWLLSPKGIEDDATRELIRTQYS | -0.0946
HMRGPTIELLIQKSALYEELDDSENALKEILKAFDRDSLNSDVLNRLVNLLLNDKQIDRAENYNQLLIEK | -0.847
HMRGPVRLDLPVSGLSRSSGPALAKILQAVPGVHKAHVNVRSGKATLEYDPARAKVTDFVEVIRSAGFGT | -0.072
HMRGQGRILAMLKIQPEIATKDLAYLLGIRQQSLNELLKKLEKNSYVERRPSEKDRRVMVVHLTEKGKE | 0.0202

Sequence | soluble fraction (log2)
HMRGQLADLWLPREQARRAAEIVAARPVPLGSVKTWIARGKLAPRKTGTGPALYRVGALVSLLAKS | 0.133
HMRGVNEISYTTLISEVSGGNVRDVVISGDEITGTFNDGSRFHSFSPDDPQFIERLNDQGVIINVKPL | -0.904
HMRHDSEGYYRLIGVPPDADDAELKEAAKKRLMEAHPDHGGSEDEFVEVYRAYRTLTDPSARAEYDARP | -0.133
HMRHEDLSPAQKAAALVVAVGSENAAQVLRHLSEEEVEILAGEVARLGEVDPDVVDSVMREVYEQMMGH | -0.929
HMRHKSNRRLTAAHQIEQQIQKLLMENTMEAKELKESLNFAAKDIDTVLSWLVDKDKVRINAINQYYWT | -1.28
HMRHRITEKDKQFRIGQQVWHSEYGKGMVLSVDGIGSSARLTVSFVSGKLAKIIGTFVSTEP | -0.982
HMRIETLESLANRLAYKAYRTGRKVELEPMNPFERRVIHTALQNSKYATTESEGEDMNRHIVIVPKEGG | 0.247
HMRILGIDPGSVVTGYGVIDKSGNYLRHVLHGEIKPHKGYLLSEVLMDIFSKLSAVIVETNPQSV | 0.146
HMRINIVKSKNAEQLYIIHSYRINGKNTSKIYKKLGTMADLLPLHNHDRDQVLAWAKEQARLATEQYDQEN | 0.26
HMRIQLNFSDQLLDDVMSEALKHIDRKSQEHHIEKQMDDEFMLVYIDARLIIQVIVNIINNAIKY | -0.912
HMRITEGEIVEIQEGDNRALVGVGEKLEGIISLDEIRGADGKLLFNVGDKITVMVMGHYNERPK | -0.429
HMRITRREQQVLHLLAMGMTTREIAGHINLTERTVRNRISNLRDKLGAQTASQLLAKAVAQGLIEP | 0.426
HMRIVSGRESMLGRTVVVADWAGERGHVVVDGERWNAVASTPLAAGRRARIVGIDGLTLSVSPDDKP | 0.0452
HMRKAERHLLIKQVIDEFTIRTQEELLAKLSDYGVNATQATISRDIRDLKIVKAPDENGISRFVFF | -0.358
HMRKGDDRLRAQVDEYISKQGNNTFNYKQVAHAINATSPISQRAVALYLAELAFDGDLLETAPGRYKSPSR | 0.191
HMRKIKDVLRLKLHAGLSHERVAASLNISKGVVAKYTSLAAAAGLDWPTVERLSEAALERRLV | 0.22
HMRKIKEVLRLKFETGFSHERIAAAVGVSKGAVTKYVQRAVAAGLGWPLAPERDDAALEALLFPH | 0.0455
HMRKLDQRLAGLLLGKGRLVKATHQQLADELGSVREMVSRLLKGFAEHDLVRMSREQIEIVDAAGLRKLAD | -0.611
HMRKPDLTSVRTLIRSVSKLARHLKISPNGIYRWISVNRIPGAHVVKVANYYDVEIRDLVHLTGSD | -0.578
HMRLADHVVEKLLALVQDRGLQPGQKLPAERQLAEELGVSRTSVREAIQKLTSQGVLSARRGDGTYLQS | 0.402
HMRLARPLTPTEERVLRLLASDMSNAKIGEVLGIRLPTVKSHVSHIMQKLGVTSRAKARTAAQQLGI | ≥ 0.43
HMRLDPENFYIRAVTYYRNGDWQRALSQLDEAIKLGTAIEYPALQARIYLEQGMRDEFIAASEK | -1.42
HMRLDVALRGVLLDGDPTQSRAFVLVSGTTSTYRLGETVQSAELVAINADTITLRTETGLHVIGFDGLI | -2.11
HMRLEYLVDVEEISIKEYLMLLGLSRRLARKIKLYGKMYINHQEAFNYHLVKKGDLLTIEFDE | -2.21
